{"source": "patent US6916917B1", "about": "“Chimeric pro-caspases and methods of using same” (California Institute of Technology, priority 1998, dated 2005)", "molecular_target": "T1, pro-caspase-8 (Homo sapiens, UniProt P62942+Q14790)", "T1 construct": "in vitro translated, ^35S-labeled Fkp3-Casp8(206); made in house; host or cells: cell-free in vitro transcription/translation, TNT Reticulocyte Lysate System (Promega)", "T1 sequence (P62942+Q14790 fused)": "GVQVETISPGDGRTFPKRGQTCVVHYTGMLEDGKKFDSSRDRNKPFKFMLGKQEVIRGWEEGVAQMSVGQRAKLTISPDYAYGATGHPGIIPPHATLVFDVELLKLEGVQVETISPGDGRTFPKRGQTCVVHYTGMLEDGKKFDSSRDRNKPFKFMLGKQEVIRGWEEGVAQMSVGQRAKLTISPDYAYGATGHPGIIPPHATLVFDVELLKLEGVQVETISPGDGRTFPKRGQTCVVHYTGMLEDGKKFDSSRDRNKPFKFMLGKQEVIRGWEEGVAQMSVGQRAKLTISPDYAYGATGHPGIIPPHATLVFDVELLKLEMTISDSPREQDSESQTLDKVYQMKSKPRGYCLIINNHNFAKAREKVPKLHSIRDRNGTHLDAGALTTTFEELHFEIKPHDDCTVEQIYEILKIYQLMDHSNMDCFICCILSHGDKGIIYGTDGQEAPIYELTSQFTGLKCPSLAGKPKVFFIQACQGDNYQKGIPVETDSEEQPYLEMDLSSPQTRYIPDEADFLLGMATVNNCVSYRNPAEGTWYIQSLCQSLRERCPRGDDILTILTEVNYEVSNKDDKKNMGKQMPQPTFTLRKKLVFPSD", "assay": "Cell-free processing of pro-caspase-8 (in vitro translated, 35S-labeled, SDS-PAGE autoradiography)", "format": "biochemical", "conditions": "AP1510 100 nM; FK506 100 nM; Z-DEVD 10 μM", "method": "In vitro transcription and translation of the indicated constructs with ^35S-labeled methionine were carried out with the TNT Reticulocyte Lysate System (Promega; Madison Wis.). The reaction mixture contained 1 μl of the in vitro translation product and the indicated drugs dissolved in 3 μl of CED3 reaction buffer (Xue et al., Genes Devel. 10:1073-1083 (1996), which is incorporated herein by reference). Final drug concentrations of 100 nM of AP1510 or FK506 and 10 μM of Z-Asp-Glu-Val-Asp(SEQ ID NO:1)(Z-DEVD; Enzyme System Products; Calif.) were used. The reaction mixture was incubated in 30° C. for 4 hr, then the reaction stopped by the addition of SDS sample buffer. Reaction products were visualized by SDS-PAGE and autoradiography.", "data": [{"substance": "Z-Asp-Glu-Val-Asp (ZDEVD; N-terminal benzyloxycarbonyl (Z); enzyme used in cell-free processing of Pro-Caspase-8) [z-DEVD]", "values": [{"measurement": "effect on AP1510-initiated cell-free processing of Fkp3-Casp8(206)", "result": "inhibited"}]}]}
